We go through 1 molecule from publication PMC4500674 (Archives of biochemistry and biophysics, 2015).

The target in this experiment is T1, human Mia40, wild type, short linker form (human, UniProt Q8N4Q1 1-142).
T1 sequence: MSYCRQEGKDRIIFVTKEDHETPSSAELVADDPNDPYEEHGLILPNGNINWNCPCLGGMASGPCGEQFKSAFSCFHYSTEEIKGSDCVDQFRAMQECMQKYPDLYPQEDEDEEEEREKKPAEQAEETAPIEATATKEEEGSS
Kind of experiment: stopped-flow fluorescence kinetics.

B1: reduced bovine pancreatic ribonuclease A (natural protein, UniProt P61823 27-150, looked up)
chain: KETAAAKFERQHMDSSTSAASSSNYCNQMMKSRNLTKDRCKPVNTFVHESLADVQAVCSQKNVACKNGQTNCYQSYSTMSITDCRETGSSKYPNCAYKTTQANKHIIVACEGNPYVPVHFDASV
On to B1, for which binding was characterised by a dissociation constant (Kd) of 10.4 ± 0.2 µM.
